Test [1] has as its target 3-hydroxy-3-methylglutaryl coenzyme A reductase (HMGCoAR), catalytic domain. The test is described as follows: cell-based or functional assay.
The target in test [2] is T1, proprotein convertase subtilisin/kexin type-9 (PCSK9), His-tagged (UniProt Q8NBP7 31-692).
T1 construct: PCSK9, recombinant His-tagged protein of the kit; The functional rows use this molecule; also called His-tagged PCSK9
The test is described as follows: ELISA; CircuLex in vitro PCSK9-LDLR binding assay kit; plate pre-coated with recombinant LDLR-AB domain; peptide (0.1-100 uM) in reaction buffer, then His-tagged PCSK9 added; 2 h at room temperature; detected with biotinylated anti-His-tag antibody, HRP-streptavidin and TMB, absorbance at 450 nm. The note with it: both partners purified. (In an ELISA, binding on a coated surface is turned into a signal by an enzyme label.)

This note sets out measurements from paper PMC8000724, “Trans-Epithelial Transport, Metabolism, and Biological Activity Assessment of the Multi-Target Lupin Peptide [sequence] (P5) and Its Metabolite [sequence] (P5-Met)” (Nutrients, 2021).

T1 sequence (Q8NBP7 31-692): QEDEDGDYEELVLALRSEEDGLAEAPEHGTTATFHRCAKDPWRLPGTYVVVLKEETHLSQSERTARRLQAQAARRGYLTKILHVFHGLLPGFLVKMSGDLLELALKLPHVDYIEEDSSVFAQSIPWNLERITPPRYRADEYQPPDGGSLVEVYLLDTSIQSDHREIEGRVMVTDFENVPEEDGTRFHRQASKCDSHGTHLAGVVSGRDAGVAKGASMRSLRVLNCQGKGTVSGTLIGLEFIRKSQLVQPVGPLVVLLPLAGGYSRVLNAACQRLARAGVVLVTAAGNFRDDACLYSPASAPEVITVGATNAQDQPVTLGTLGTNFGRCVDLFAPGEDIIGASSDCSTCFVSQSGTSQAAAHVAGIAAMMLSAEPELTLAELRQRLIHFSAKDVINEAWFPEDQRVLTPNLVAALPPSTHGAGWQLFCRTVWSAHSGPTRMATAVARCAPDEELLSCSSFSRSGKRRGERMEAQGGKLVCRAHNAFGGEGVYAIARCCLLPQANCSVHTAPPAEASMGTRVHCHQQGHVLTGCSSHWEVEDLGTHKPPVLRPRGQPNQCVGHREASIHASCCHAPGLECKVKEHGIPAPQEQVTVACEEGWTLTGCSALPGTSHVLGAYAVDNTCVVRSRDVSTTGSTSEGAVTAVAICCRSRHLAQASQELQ
3-hydroxy-3-methylglutaryl coenzyme A reductase (HMGCoAR), catalytic domain, sequence (P04035 whole entry, the tested form may be a part): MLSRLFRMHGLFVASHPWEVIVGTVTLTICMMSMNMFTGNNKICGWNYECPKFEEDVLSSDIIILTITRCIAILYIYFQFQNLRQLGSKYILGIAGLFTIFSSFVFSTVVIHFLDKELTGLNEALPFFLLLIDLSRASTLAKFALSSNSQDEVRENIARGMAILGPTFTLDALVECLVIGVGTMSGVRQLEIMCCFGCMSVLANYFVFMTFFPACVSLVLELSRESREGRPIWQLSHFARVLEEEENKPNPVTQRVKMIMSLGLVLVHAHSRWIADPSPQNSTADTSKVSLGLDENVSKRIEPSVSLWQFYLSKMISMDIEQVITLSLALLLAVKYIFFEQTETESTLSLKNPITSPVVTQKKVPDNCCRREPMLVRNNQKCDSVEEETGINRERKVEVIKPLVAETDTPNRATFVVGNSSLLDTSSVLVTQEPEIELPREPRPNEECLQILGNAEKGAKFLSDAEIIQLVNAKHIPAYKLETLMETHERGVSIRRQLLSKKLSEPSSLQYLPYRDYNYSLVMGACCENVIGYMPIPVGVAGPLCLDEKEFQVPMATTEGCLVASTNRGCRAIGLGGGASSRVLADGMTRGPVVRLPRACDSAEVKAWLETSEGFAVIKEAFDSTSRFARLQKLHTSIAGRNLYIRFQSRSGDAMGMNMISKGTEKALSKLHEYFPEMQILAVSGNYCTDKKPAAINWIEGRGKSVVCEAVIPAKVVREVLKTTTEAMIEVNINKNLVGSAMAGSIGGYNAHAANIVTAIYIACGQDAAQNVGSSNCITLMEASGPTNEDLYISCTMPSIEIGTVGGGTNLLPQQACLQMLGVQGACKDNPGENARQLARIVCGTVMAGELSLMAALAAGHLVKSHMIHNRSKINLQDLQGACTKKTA

B1: lupin peptide P5 (LILPKHSDAD) (peptide)
peptide: LILPKHSDAD
notes: peptide from the peptic hydrolysate of lupin protein; also called parent peptide; source: synthetic peptide (GeneScript, >95% purity)
What is called IC50 is the point on the concentration scale where inhibition reaches its midpoint. Turning to B1, the “in vitro HMGCoAR activity (NADPH oxidation, absorbance at 340 nm, 37 °C), peptide 10-500 µM; IC50” value in test [1] came out at 147 µM. Besides, the IC50 in test [2] came out at 1300 nM.

B2: P5-met (LPKHSDAD), metabolite of lupin peptide P5 (peptide)
peptide: LPKHSDAD
notes: source: synthetic peptide (GeneScript, >95% purity)
B2: the “in vitro HMGCoAR activity (NADPH oxidation, absorbance at 340 nm, 37 °C), peptide 10-500 µM; IC50” value in test [1] was 175 µM. Further, the IC50 in test [2] came to 1700 nM.
